Read-outs that look alike come from different tables or passages of the source.
Columns and labels:
[1] = cited from earlier work
[2] = SEC-MALS assay (protein stability analysis); type: physicochemical; details: for SEC-MALS HMW: high molecular weight fraction; for SEC-MALS Main Peak: main peak fraction; for SEC-MALS Tailing Peak: tailing peak fraction
Description: A SEC-MALS assay was performed to determine the primary state (main peak) and its molecular weight. The GLP-2 peptibody A has the amino acid sequence set forth in SEQ ID NO: 1. The GLP-2 peptibody B has the amino acid sequence set forth in SEQ ID NO: 4. The GLP-2 peptibody C has the amino acid sequence set forth in SEQ ID NO: 7. The GLP-2 peptibody D has the amino acid sequence set forth in SEQ ID NO: 10.

Molecule: CC[C@H](C)[C@H](NC(=O)[C@H](Cc1ccccc1)NC(=O)[C@H](CC(=O)O)NC(=O)[C@H](CCCNC(=N)N)NC(=O)[C@H](C)NC(=O)[C@H](C)NC(=O)[C@H](CC(C)C)NC(=O)[C@H](CC(N)=O)NC(=O)[C@H](CC(=O)O)NC(=O)[C@H](CC(C)C)NC(=O)[C@@H](NC(=O)[C@@H](NC(=O)[C@H](CC(N)=O)NC(=O)[C@H](CCSC)NC(=O)[C@H](CCC(=O)O)NC(=O)[C@H](CC(=O)O)NC(=O)[C@H](CO)NC(=O)[C@H](Cc1ccccc1)NC(=O)[C@H](CO)NC(=O)CNC(=O)[C@H](CC(=O)O)NC(=O)CNC(=O)[C@@H](N)Cc1c[nH]cn1)[C@@H](C)O)[C@@H](C)CC)C(=O)N[C@@H](CC(N)=O)C(=O)N[C@@H](Cc1c[nH]c2ccccc12)C(=O)N[C@@H](CC(C)C)C(=O)N[C@H](C(=O)N[C@@H](CCC(N)=O)C(=O)N[C@H](C(=O)N[C@@H](CCCCN)C(=O)N[C@H](C(=O)N[C@H](C(=O)N[C@@H](CC(=O)O)C(=O)O)[C@@H](C)O)[C@@H](C)CC)[C@@H](C)O)[C@@H](C)CC [Teduglutide]
- half-life ([1]; SBS patients): ~1.3 h
- half-life ([1]; healthy patients): approximately 2 hours

Molecule: GLP-2 peptibody B: GLP-2[A2G]-linker APAPAPAPAPAPAPAPAPAP-IgG1(LALA) Fc fusion having the amino acid sequence of SEQ ID NO: 4
- SEC-MALS HMW [2]: 1.2% HMW
- SEC-MALS Main Peak [2]: 80.7% Main Peak
- SEC-MALS Tailing Peak [2]: 18.1% Tailing Peak

Molecule: GLP-2 peptibody D: GLP-2[A2G] with C-terminal arginine-linker GGGGSGGGGSGGGGS-IgG1(LALA) Fc fusion having the amino acid sequence of SEQ ID NO: 10
- SEC-MALS HMW [2]: 1.4% HMW
- SEC-MALS Main Peak [2]: 86.8% Main Peak
- SEC-MALS Tailing Peak [2]: 11.8% Tailing Peak

Molecule: GLP-2 peptibody C: GLP-2[A2G]-linker AEAAAKEAAAKEAAAKALEAEAAAKEAAAKEAAAKA-IgG1(LALA) Fc fusion having the amino acid sequence of SEQ ID NO: 7
- SEC-MALS Main Peak [2]: 82.6% Main Peak
- SEC-MALS Tailing Peak [2]: 17.4% Tailing Peak
